Data from patent publication US20230060040A1, “USE OF TRANSFERRIN, TRANSFERRIN RECEPTOR AND ANTIBODY THEREOF IN PREPARATION OF ANTI-SARS-CoV-2 DRUG” (KUNMING INSTITUTE OF ZOOLOGY, CHINESE ACADEMY OF SCIENCES, priority 2020, published 2023).

Target: transferrin receptor on the membrane surface of Vero E6 cells (African green monkey)
Test: cell-based or functional assay

“transferrin (Sigma, catalog number T4382) (from UniProt P02787 20-698) (ligand)” was tested, and the EC50 of inhibition of SARS-CoV-2 infection of Vero E6 cells, calculated by CPE was 125 nM.
